Patent US5985836A, “Alpha-1 proteinase inhibitor binding peptides” (Bayer Corporation, priority 1998, dated 1999)
Ends that are not written are not given here.

Legend:
[1] = target: T1, apolipoprotein alpha-1 (Apo A-1) (Homo sapiens, UniProt P02647); test: Purification from Effluent II+III, Apo A-1 mass balance; assay type: binding; conditions: 1 ml Eff. II+III, 4° C.
T1 construct: Eff; II+III is a process intermediate in the Cohn plasma fractionation process; tissue Bayer Corporation (Clayton, N.C.); host or cells: plasma fraction: Cohn Effluent II+III
T1 sequence (P02647 19-267): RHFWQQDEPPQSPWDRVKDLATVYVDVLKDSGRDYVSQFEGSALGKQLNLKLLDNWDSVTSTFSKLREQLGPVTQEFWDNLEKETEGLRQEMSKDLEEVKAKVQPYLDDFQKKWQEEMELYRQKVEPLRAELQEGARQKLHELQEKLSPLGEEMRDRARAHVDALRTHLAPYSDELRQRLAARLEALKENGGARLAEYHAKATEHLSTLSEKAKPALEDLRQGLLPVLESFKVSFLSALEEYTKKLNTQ
Method: (§1) Sequences 1-11 and 15 were assayed with Effluent II+III (Eff. II+III). Eff. II+III is a process intermediate in the Cohn plasma fractionation process. The feed stream contains 20% (by volume) ethanol, 20-25 mg/ml hSA and approximately 1 mg/ml AlPI. The stream also contains other proteins including anti-thrombin III (AT3), immunoglobin G (IgG), immunoglobin A (IgA), apolipoprotein alpha-1 (Apo A-1), transferrin (Trf), haptoglobin (Hpt), and alpha-1 acid glycoprotein (AAG) at concentrations ranging from 0.1-1 mg/ml.
(§2) The columns were assayed using the same technique as the hSA+AlPI experiments, allowing for a 10 minute residence time followed by a constant flow rate of 865 μl/min with step elutions of 1M NaCl, 3M NaCl, and 2% acetic acid. All experiments were conducted at 4° C. The mass balances for the injection of 1 ml Eff. […] The AlPI was enriched from 3% of the total protein in the feed to upwards of 50% in the acid eluate.

[2] = system: Immunoglobulin G (IgG); test: Purification from Effluent II+III, IgG mass balance; assay type: binding, human; conditions: 1 ml Eff. II+III, 4° C.
Method: as §1, §2

[3] = target: T2, A1PI (Homo sapiens, UniProt P01009); test: A1PI yield from dialyzed (aqueous) Effluent II+III; assay type: binding; conditions: 4° C.
T2 construct: Human plasma is currently the only approved source of therapeutic AlPI
T2 sequence (P01009 25-418): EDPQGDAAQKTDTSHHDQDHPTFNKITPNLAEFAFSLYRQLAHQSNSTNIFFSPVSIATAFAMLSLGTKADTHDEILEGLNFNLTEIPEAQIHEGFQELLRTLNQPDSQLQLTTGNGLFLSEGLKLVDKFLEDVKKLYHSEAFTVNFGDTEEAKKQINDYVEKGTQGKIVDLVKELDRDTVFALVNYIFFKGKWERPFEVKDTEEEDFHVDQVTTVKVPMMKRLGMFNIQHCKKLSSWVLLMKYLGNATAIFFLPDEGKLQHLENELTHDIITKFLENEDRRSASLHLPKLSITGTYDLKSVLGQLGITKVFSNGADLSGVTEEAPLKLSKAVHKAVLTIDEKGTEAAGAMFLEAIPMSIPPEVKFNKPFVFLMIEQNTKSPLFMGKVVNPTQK
Method: Effluent II+III was dialyzed against equilibration buffer at 4° C. to remove the ethanol using a 15,000 molecular weight cut-off membrane. Nephelometry of the Eff. […] A portion of the identified sequences were assayed under the same conditions applied for neat Eff. II+III at 4° C. […] II+III compared to the neat, ethanol-containing feed. The binding strength differed for the aqueous feed as more AlPI eluted in 1M NaCl for the aqueous feed. The AlPI eluted in the 1M NaCl fractions was not as enriched as that eluted in the acid eluates.

[4] = system: Immunoglobulin A (IgA); test: Purification from Effluent II+III, IgA mass balance; assay type: binding, human; conditions: 1 ml Eff. II+III, 4° C.
Method: as §1, §2

[5] = target: T2, A1PI; test: Purification of A1PI from Effluent II+III on peptide column, A1PI mass balance; assay type: binding; conditions: A1PI, 1 ml Eff. II+III, 4° C.
Procedure, shortened: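 Run at 4° C: Effluent II+III (1 ml, 20% ethanol) loaded with a 10 min residence. Elution at 865 μl/min, in sequence 1M NaCl, 3M NaCl, 2% acetic acid; A1PI, IgA, IgG and haptoglobin accounted for in each fraction.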

[6] = target: T2, A1PI; test: A1PI purification from 5 mg hSA + 1 mg A1PI on peptide column, A1PI mass balance; assay type: binding; conditions: A1PI, 5 mg hSA + 1 mg A1PI; for Mass Protein per Eluate Fraction, 1M NaCl / Mass Protein per Eluate Fraction, 2% Ac. Acid / Mass Protein per Eluate Fraction, Flow: * Below detection limit; for Percent Eluted by Fraction, 1M NaCl / Percent Eluted by Fraction, 2% Ac. Acid / Percent Eluted by Fraction, 3M NaCl / Percent Eluted by Fraction, Flow: relative to total eluted
Procedure, shortened: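 Mass balance by immunonephelometry of fractions from step elutions (1M NaCl, 3M NaCl, 2% acetic acid, neutralised with Tris) at 865 μl/min. Sample was a mixture of 1 mg A1PI and 5 mg hSA held 10 min on peptide-derivatised Toyopearl columns (0.1 mmole/g) at 4 °C or 20 °C.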

[7] = target: T2, A1PI; test: A1PI binding on peptide-resin column, injection of 1 mg A1PI in equilibration buffer; conditions: 1 mg A1PI in equilibration buffer
Procedure, shortened: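 Percent of total eluted A1PI per fraction (flowthrough, NaCl steps, 2% acetic acid) determined by A280 integration or immunonephelometry. Columns of peptide-derivatized A-Totda-Toyopearl resin (0.1 mmole/g) received 1 mg A1PI at 4 °C or 20 °C, flow 865 or 523 μl/min.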

[8] = target: T2, A1PI; test: Capture and elution of active A1PI with 2M urea buffer (elastase inhibition activity assay and immunonephelometry); assay type: binding
[9] = * as in Tables 4, 5 (below detection limit)
[10] = 1 ml dialyzed Eff. II+III (ethanol removed)
[11] = A1PI, 1 ml dialyzed Eff. II+III

In the case of IIWLYK, the “Percent Eluted by Fraction, 1M NaCl” value [1] is reported as 0%, the “Percent Eluted by Fraction, 2% Acetic Acid” value [1] is reported as 100% and the “Percent Eluted by Fraction, 3M NaCl” value [1] is reported as 0%. The “Percent Eluted by Fraction, Flow” value [1] was 0%, the “Mass Protein per Eluate Fraction, 2% Acetic Acid” value [1, 9] was 0.43 mg and the “Percent Eluted by Fraction, 1M NaCl” value [2] was 9%. The “Percent Eluted by Fraction, 2% Acetic Acid” value [2] was 0%, the “Percent Eluted by Fraction, 3M NaCl” value [2] was 0% and the “Percent Eluted by Fraction, Flow” value [2] was 91%. The “Mass Protein per Eluate Fraction, 1M NaCl” value [2, 9] was 0.02 mg, the “Mass Protein per Eluate Fraction, Flow” value [2, 9] was 0.23 mg and the “Mass A1PI per Eluate Fraction, 1M NaCl” value [3, 10] was 0.05 mg. The “Mass A1PI per Eluate Fraction, 2% Acetic Acid” value [3, 10] was 0.38 mg, the “Mass A1PI per Eluate Fraction, Flowthrough” value [3, 10] was 0.19 mg and the “Percent Eluted by Fraction, 1M NaCl” value [3, 11] was 9%. For the same substance, the “Percent Eluted by Fraction, 2% Acetic Acid” value [3, 11] was 60%, the “Percent Eluted by Fraction, Flowthrough” value [3, 11] was 31% and the “Percent Eluted by Fraction, 1M NaCl” value [4] was 34%. The “Percent Eluted by Fraction, 2% Acetic Acid” value [4] was 49%, the “Percent Eluted by Fraction, 3M NaCl” value [4] was 0% and the “Percent Eluted by Fraction, Flow” value [4] was 17%. The “Mass Protein per Eluate Fraction, 1M NaCl” value [4, 9] was 0.12 mg, the “Mass Protein per Eluate Fraction, 2% Acetic Acid” value [4, 9] was 0.17 mg and the “Mass Protein per Eluate Fraction, Flow” value [4, 9] was 0.06 mg. The “Percent Eluted by Fraction, 1M NaCl” value [5] was 0%, the “Percent Eluted by Fraction, 2% Acetic Acid” value [5] was 79% and the “Percent Eluted by Fraction, 3M NaCl” value [5] was 0%. For the same substance, the “Percent Eluted by Fraction, Flow” value [5] was 21%, the “Mass Protein per Eluate Fraction, 2% Acetic Acid” value [5, 9] was 0.50 mg and the “Mass Protein per Eluate Fraction, Flow” value [5, 9] was 0.13 mg. For the same substance, the “Mass Protein per Eluate Fraction, 1M NaCl” value ([6]; 4° C.) was 0.10 mg, the “Mass Protein per Eluate Fraction, 2% Ac. Acid” value ([6]; 4° C.) was 0.18 mg and the “Mass Protein per Eluate Fraction, Flow” value ([6]; 4° C.) was 0.52 mg. For the same substance, the “Percent Eluted by Fraction, 1M NaCl” value ([6]; 4° C.) was 13%, the “Percent Eluted by Fraction, 2% Ac. Acid” value ([6]; 4° C.) was 23% and the “Percent Eluted by Fraction, 3M NaCl” value ([6]; 4° C.) was 0%. For the same substance, the “Percent Eluted by Fraction, Flow” value ([6]; 4° C.) was 65%, the “Mass Protein per Eluate Fraction, 1M NaCl” value ([6]; 20° C.) was 0.07 mg and the “Mass Protein per Eluate Fraction, 2% Ac. Acid” value ([6]; 20° C.) was 0.47 mg. For the same substance, the “Mass Protein per Eluate Fraction, Flow” value ([6]; 20° C.) was 0.26 mg, the “Percent Eluted by Fraction, 1M NaCl” value ([6]; 20° C.) was 9% and the “Percent Eluted by Fraction, 2% Ac. Acid” value ([6]; 20° C.) was 58%. For the same substance, the “Percent Eluted by Fraction, 3M NaCl” value ([6]; 20° C.) was 0%, the “Percent Eluted by Fraction, Flow” value ([6]; 20° C.) was 33% and the “Percent A1PI Eluted by Fraction Based on Absorbance at 280 nm, 1M NaCl” value ([7]; 4° C.) was 52%. The “Percent A1PI Eluted by Fraction Based on Absorbance at 280 nm, 2% Acetic Acid” value ([7]; 4° C.) was 48%, the “Percent A1PI Eluted by Fraction Based on Absorbance at 280 nm, Flowthrough” value ([7]; 4° C.) was 0% and the “Percent A1PI Eluted by Fraction, 1M NaCl” value ([7]; 20° C.) was 17%. The “Percent A1PI Eluted by Fraction, 2% Acetic Acid” value ([7]; 20° C.) was 55% and the “Percent A1PI Eluted by Fraction, Flowthrough” value ([7]; 20° C.) was 28%.

For “Neat A1PI: freshly dissolved human alpha-1 proteinase inhibitor fed to the columns”, the “Mass A1PI in Urea Eluate (mg), Activity” value ([8]; 1 mg A1PI, 4° C., eluted with 2M urea, pH 6, elastase inhibition activity assay) was 0.87 mg, the “Mass A1PI in Urea Eluate (mg), Nephelometry” value ([8]; 1 mg A1PI, 4° C., eluted with 2M urea, pH 6, immunonephelometry) was 1.10 mg and the Specific Activity ([8]; activity assay mass relative to immunonephelometry mass) was 0.79 mg/mg. The “Specific Activity” value ([8]; mass of A1PI by activity assay relative to immunonephelometry, urea eluate, 4° C.) was 0.79 mg/mg.
